{
  "source": "patent US20240123029A1",
  "biological_target": "Recombinant human mannose binding lectin (MBL) (human) (UniProt P11226)",
  "sequence (P11226 21-248 limits assumed)": "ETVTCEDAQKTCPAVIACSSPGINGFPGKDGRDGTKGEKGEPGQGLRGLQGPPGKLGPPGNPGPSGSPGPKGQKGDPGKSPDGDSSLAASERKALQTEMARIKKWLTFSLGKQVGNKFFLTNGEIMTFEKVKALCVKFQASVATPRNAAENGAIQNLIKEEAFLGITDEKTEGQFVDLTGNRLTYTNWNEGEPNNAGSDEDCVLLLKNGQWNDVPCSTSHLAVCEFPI",
  "data": [
    {"substance": "Biotinylated SARS-CoV-2 S protein, His Tag, active trimer (from UniProt P0DTC2 16-1213) (other; other documents disagree on this pair)", "values": [
      {"measurement": "EC50 (read off the curve)", "result": 3, "unit": "nM"}
    ]}
  ]
}
